Reference: US20240018252A1 (Pfizer, published 2024)

B1: L3.PY/L1.AH/H3.TAQ (antibody, V domains shown)
VH: EVQLLESGGGLVQPGGSLRLSCAASGFTFGSYAMTWVRQAPGKGLEWVSAISGSGGNTFYADSVKGRFTISRDNSKNTLYLQMNSLRAEDTAVYYCTRVSPIAAQMDYWGQGTLVTVSS
VL: EIVLTQSPGTLSLSPGERATLSCRASQSVSAHYLAWYQQKPGQAPRLLIYGASSRATGIPDRFSGSGSGTDFTLTISRLEPEDFAVYYCQHYPYPPSFTFGQGTKVEIK
notes: IgG in the assay
B2: L3.PY/L1.PH/H2.HA (antibody, V domains shown)
VH: EVQLLESGGGLVQPGGSLRLSCAASGFTFGSYAMTWVRQAPGKGLEWVSAISHAGGNTFYADSVKGRFTISRDNSKNTLYLQMNSLRAEDTAVYYCARVSPIASGMDYWGQGTLVTVSS
VL: EIVLTQSPGTLSLSPGERATLSCRASQSVSPHYLAWYQQKPGQAPRLLIYGASSRATGIPDRFSGSGSGTDFTLTISRLEPEDFAVYYCQHYPYPPSFTFGQGTKVEIK
notes: IgG in the assay
B3: L3.PY/L1.PH/H2.QR (antibody, V domains shown)
VH: EVQLLESGGGLVQPGGSLRLSCAASGFTFGSYAMTWVRQAPGKGLEWVSAISGSGGNTFYADQRKGRFTISRDNSKNTLYLQMNSLRAEDTAVYYCARVSPIASGMDYWGQGTLVTVSS
VL: EIVLTQSPGTLSLSPGERATLSCRASQSVSPHYLAWYQQKPGQAPRLLIYGASSRATGIPDRFSGSGSGTDFTLTISRLEPEDFAVYYCQHYPYPPSFTFGQGTKVEIK
notes: IgG in the assay
B4: L3.PY/L1.FF/H3.YA (antibody, V domains shown)
VH: EVQLLESGGGLVQPGGSLRLSCAASGFTFGSYAMTWVRQAPGKGLEWVSAISGSGGNTFYADSVKGRFTISRDNSKNTLYLQMNSLRAEDTAVYYCARVSPIYAGMDYWGQGTLVTVSS
VL: EIVLTQSPGTLSLSPGERATLSCRASQSVSSFFLAWYQQKPGQAPRLLIYGASSRATGIPDRFSGSGSGTDFTLTISRLEPEDFAVYYCQHYPYPPSFTFGQGTKVEIK
notes: IgG in the assay
B5: L3.PY/L1.FF/H2.HA (antibody, V domains shown)
VH: EVQLLESGGGLVQPGGSLRLSCAASGFTFGSYAMTWVRQAPGKGLEWVSAISHAGGNTFYADSVKGRFTISRDNSKNTLYLQMNSLRAEDTAVYYCARVSPIASGMDYWGQGTLVTVSS
VL: EIVLTQSPGTLSLSPGERATLSCRASQSVSSFFLAWYQQKPGQAPRLLIYGASSRATGIPDRFSGSGSGTDFTLTISRLEPEDFAVYYCQHYPYPPSFTFGQGTKVEIK
notes: IgG in the assay
B6: L3.PY/L1.FF/H3.TAQ (antibody, V domains shown)
VH: EVQLLESGGGLVQPGGSLRLSCAASGFTFGSYAMTWVRQAPGKGLEWVSAISGSGGNTFYADSVKGRFTISRDNSKNTLYLQMNSLRAEDTAVYYCTRVSPIAAQMDYWGQGTLVTVSS
VL: EIVLTQSPGTLSLSPGERATLSCRASQSVSSFFLAWYQQKPGQAPRLLIYGASSRATGIPDRFSGSGSGTDFTLTISRLEPEDFAVYYCQHYPYPPSFTFGQGTKVEIK
notes: IgG in the assay
B7: L3.PY/L1.PH/H3.TAQ (antibody, V domains shown)
VH: EVQLLESGGGLVQPGGSLRLSCAASGFTFGSYAMTWVRQAPGKGLEWVSAISGSGGNTFYADSVKGRFTISRDNSKNTLYLQMNSLRAEDTAVYYCTRVSPIAAQMDYWGQGTLVTVSS
VL: EIVLTQSPGTLSLSPGERATLSCRASQSVSPHYLAWYQQKPGQAPRLLIYGASSRATGIPDRFSGSGSGTDFTLTISRLEPEDFAVYYCQHYPYPPSFTFGQGTKVEIK
notes: IgG in the assay
B8: L3.PY/L3.KF/H2.YQ (antibody, V domains shown)
VH: EVQLLESGGGLVQPGGSLRLSCAASGFTFGSYAMTWVRQAPGKGLEWVSAISYQGGNTFYADSVKGRFTISRDNSKNTLYLQMNSLRAEDTAVYYCARVSPIASGMDYWGQGTLVTVSS
VL: EIVLTQSPGTLSLSPGERATLSCRASQSVSSSYLAWYQQKPGQAPRLLIYGASSRATGIPDRFSGSGSGTDFTLTISRLEPEDFAVYYCKFYPYPPSFTFGQGTKVEIK
notes: IgG in the assay
B9: L3.PY/L1.FF/H2.YQ (antibody, V domains shown)
VH: EVQLLESGGGLVQPGGSLRLSCAASGFTFGSYAMTWVRQAPGKGLEWVSAISYQGGNTFYADSVKGRFTISRDNSKNTLYLQMNSLRAEDTAVYYCARVSPIASGMDYWGQGTLVTVSS
VL: EIVLTQSPGTLSLSPGERATLSCRASQSVSSFFLAWYQQKPGQAPRLLIYGASSRATGIPDRFSGSGSGTDFTLTISRLEPEDFAVYYCQHYPYPPSFTFGQGTKVEIK
notes: IgG in the assay
B10: L3.PY/L1.FF/H2.DY (antibody, V domains shown)
VH: EVQLLESGGGLVQPGGSLRLSCAASGFTFGSYAMTWVRQAPGKGLEWVSAIDYSGGNTFYADSVKGRFTISRDNSKNTLYLQMNSLRAEDTAVYYCARVSPIASGMDYWGQGTLVTVSS
VL: EIVLTQSPGTLSLSPGERATLSCRASQSVSSFFLAWYQQKPGQAPRLLIYGASSRATGIPDRFSGSGSGTDFTLTISRLEPEDFAVYYCQHYPYPPSFTFGQGTKVEIK
notes: IgG in the assay
B11: L3.PY/L1.FF/H3.AQ (antibody, V domains shown)
VH: EVQLLESGGGLVQPGGSLRLSCAASGFTFGSYAMTWVRQAPGKGLEWVSAISGSGGNTFYADSVKGRFTISRDNSKNTLYLQMNSLRAEDTAVYYCARVSPIAAQMDYWGQGTLVTVSS
VL: EIVLTQSPGTLSLSPGERATLSCRASQSVSSFFLAWYQQKPGQAPRLLIYGASSRATGIPDRFSGSGSGTDFTLTISRLEPEDFAVYYCQHYPYPPSFTFGQGTKVEIK
notes: IgG in the assay
B12: L3.PY/L1.FF/H2.LT (antibody, V domains shown)
VH: EVQLLESGGGLVQPGGSLRLSCAASGFTFGSYAMTWVRQAPGKGLEWVSAISLTGGNTFYADSVKGRFTISRDNSKNTLYLQMNSLRAEDTAVYYCARVSPIASGMDYWGQGTLVTVSS
VL: EIVLTQSPGTLSLSPGERATLSCRASQSVSSFFLAWYQQKPGQAPRLLIYGASSRATGIPDRFSGSGSGTDFTLTISRLEPEDFAVYYCQHYPYPPSFTFGQGTKVEIK
notes: IgG in the assay
B13: L3.PY/L1.FF/H2.QL (antibody, V domains shown)
VH: EVQLLESGGGLVQPGGSLRLSCAASGFTFGSYAMTWVRQAPGKGLEWVSAISGSGGNTFYADQLKGRFTISRDNSKNTLYLQMNSLRAEDTAVYYCARVSPIASGMDYWGQGTLVTVSS
VL: EIVLTQSPGTLSLSPGERATLSCRASQSVSSFFLAWYQQKPGQAPRLLIYGASSRATGIPDRFSGSGSGTDFTLTISRLEPEDFAVYYCQHYPYPPSFTFGQGTKVEIK
notes: IgG in the assay
B14: L3.PY/L1.PH/H3.AE (antibody, V domains shown)
VH: EVQLLESGGGLVQPGGSLRLSCAASGFTFGSYAMTWVRQAPGKGLEWVSAISGSGGNTFYADSVKGRFTISRDNSKNTLYLQMNSLRAEDTAVYYCARVSPIAAEMDYWGQGTLVTVSS
VL: EIVLTQSPGTLSLSPGERATLSCRASQSVSPHYLAWYQQKPGQAPRLLIYGASSRATGIPDRFSGSGSGTDFTLTISRLEPEDFAVYYCQHYPYPPSFTFGQGTKVEIK
notes: IgG in the assay
B15: L3.PY/L3.KF/H3.AQ (antibody, V domains shown)
VH: EVQLLESGGGLVQPGGSLRLSCAASGFTFGSYAMTWVRQAPGKGLEWVSAISGSGGNTFYADSVKGRFTISRDNSKNTLYLQMNSLRAEDTAVYYCARVSPIAAQMDYWGQGTLVTVSS
VL: EIVLTQSPGTLSLSPGERATLSCRASQSVSSSYLAWYQQKPGQAPRLLIYGASSRATGIPDRFSGSGSGTDFTLTISRLEPEDFAVYYCKFYPYPPSFTFGQGTKVEIK
notes: IgG in the assay
B16: L3.PY/L3.KF/H3.AE (antibody, V domains shown)
VH: EVQLLESGGGLVQPGGSLRLSCAASGFTFGSYAMTWVRQAPGKGLEWVSAISGSGGNTFYADSVKGRFTISRDNSKNTLYLQMNSLRAEDTAVYYCARVSPIAAEMDYWGQGTLVTVSS
VL: EIVLTQSPGTLSLSPGERATLSCRASQSVSSSYLAWYQQKPGQAPRLLIYGASSRATGIPDRFSGSGSGTDFTLTISRLEPEDFAVYYCKFYPYPPSFTFGQGTKVEIK
notes: IgG in the assay
B17: L3.PY/L1.FF/H2.QR (antibody, V domains shown)
VH: EVQLLESGGGLVQPGGSLRLSCAASGFTFGSYAMTWVRQAPGKGLEWVSAISGSGGNTFYADQRKGRFTISRDNSKNTLYLQMNSLRAEDTAVYYCARVSPIASGMDYWGQGTLVTVSS
VL: EIVLTQSPGTLSLSPGERATLSCRASQSVSSFFLAWYQQKPGQAPRLLIYGASSRATGIPDRFSGSGSGTDFTLTISRLEPEDFAVYYCQHYPYPPSFTFGQGTKVEIK
notes: IgG in the assay
B18: L3.PY/L3.KF/H2.QL (antibody, V domains shown)
VH: EVQLLESGGGLVQPGGSLRLSCAASGFTFGSYAMTWVRQAPGKGLEWVSAISGSGGNTFYADQLKGRFTISRDNSKNTLYLQMNSLRAEDTAVYYCARVSPIASGMDYWGQGTLVTVSS
VL: EIVLTQSPGTLSLSPGERATLSCRASQSVSSSYLAWYQQKPGQAPRLLIYGASSRATGIPDRFSGSGSGTDFTLTISRLEPEDFAVYYCKFYPYPPSFTFGQGTKVEIK
notes: IgG in the assay
B19: L3.PY/L3.KF/H2.LT (antibody, V domains shown)
VH: EVQLLESGGGLVQPGGSLRLSCAASGFTFGSYAMTWVRQAPGKGLEWVSAISLTGGNTFYADSVKGRFTISRDNSKNTLYLQMNSLRAEDTAVYYCARVSPIASGMDYWGQGTLVTVSS
VL: EIVLTQSPGTLSLSPGERATLSCRASQSVSSSYLAWYQQKPGQAPRLLIYGASSRATGIPDRFSGSGSGTDFTLTISRLEPEDFAVYYCKFYPYPPSFTFGQGTKVEIK
notes: IgG in the assay
B20: L3.PY/L1.PH/H3.AQ (antibody, V domains shown)
VH: EVQLLESGGGLVQPGGSLRLSCAASGFTFGSYAMTWVRQAPGKGLEWVSAISGSGGNTFYADSVKGRFTISRDNSKNTLYLQMNSLRAEDTAVYYCARVSPIAAQMDYWGQGTLVTVSS
VL: EIVLTQSPGTLSLSPGERATLSCRASQSVSPHYLAWYQQKPGQAPRLLIYGASSRATGIPDRFSGSGSGTDFTLTISRLEPEDFAVYYCQHYPYPPSFTFGQGTKVEIK
notes: IgG in the assay
B21: L3.PY/L3.KF/H2.DY (antibody, V domains shown)
VH: EVQLLESGGGLVQPGGSLRLSCAASGFTFGSYAMTWVRQAPGKGLEWVSAIDYSGGNTFYADSVKGRFTISRDNSKNTLYLQMNSLRAEDTAVYYCARVSPIASGMDYWGQGTLVTVSS
VL: EIVLTQSPGTLSLSPGERATLSCRASQSVSSSYLAWYQQKPGQAPRLLIYGASSRATGIPDRFSGSGSGTDFTLTISRLEPEDFAVYYCKFYPYPPSFTFGQGTKVEIK
notes: IgG in the assay
B22: L3.PY/L1.FF/H3.AE (antibody, V domains shown)
VH: EVQLLESGGGLVQPGGSLRLSCAASGFTFGSYAMTWVRQAPGKGLEWVSAISGSGGNTFYADSVKGRFTISRDNSKNTLYLQMNSLRAEDTAVYYCARVSPIAAEMDYWGQGTLVTVSS
VL: EIVLTQSPGTLSLSPGERATLSCRASQSVSSFFLAWYQQKPGQAPRLLIYGASSRATGIPDRFSGSGSGTDFTLTISRLEPEDFAVYYCQHYPYPPSFTFGQGTKVEIK
notes: IgG in the assay

Biological target: T1, human BCMA (human, UniProt Q02223 1-54)
T1 construct: also called huBCMA; hBCMA
T1 sequence: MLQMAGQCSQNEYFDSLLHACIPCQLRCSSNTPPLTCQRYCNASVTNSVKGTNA
Assay: SPR, immobilised IgG, 37° C

Binder | T½ [min]
B1 | 9.68
B2 | 9.99
B3 | 4.89
B4 | 6.41
B5 | 5.29
B6 | 6.12
B7 | 5.43
B8 | 5.18
B9 | 7.61
B10 | 4.27
B11 | 7.51
B12 | 6.92
B13 | 8.28
B14 | 8.61
B15 | 5.09
B16 | 7.44
B17 | 6.54
B18 | 9.26
B19 | 6.05
B20 | 7.27
B21 | 6.35
B22 | 4.39
